Measured values published in patent publication EP3386536A2 (dated 2018).

Target: T1, human FcγRIIIA F158 (human, UniProt P08637 17-208)
T1 construct: also called CD16a F158 variant
Assay: BLI (Octet Red 96), FcγR on anti-his tag biosensor, conjugate in solution, avidity binding model

T1 sequence (P08637 17-208 limits assumed): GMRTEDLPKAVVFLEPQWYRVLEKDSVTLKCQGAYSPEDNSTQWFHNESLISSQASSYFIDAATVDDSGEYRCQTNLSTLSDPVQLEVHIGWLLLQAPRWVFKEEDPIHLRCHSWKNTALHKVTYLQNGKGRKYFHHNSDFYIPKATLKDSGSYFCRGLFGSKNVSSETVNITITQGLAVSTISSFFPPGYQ

B1: SBT040-G2 ATAC11 (antibody, human IgG2, kappa)
heavy: not shown
light: DIQMTQSPSSVSASVGDRVTITCRASQGIYSWLAWYQQKPGKAPNLLIYTASTLQSGVPSRFSGSGSGTDFTLTISSLQPEDFATYYCQQANIFPLTFGGGTKVEIKRTVAAPSVFIFPPSDEQLKSGTASVVCLLNNFYPREAKVQWKVDNALQSGNSQESVTEQDSKDSTYSLSSTLTLSKADYEKHKVYACEVTHQGLSSPVTKSFNRGEC
modifications: ATAC11 may also sit on light chain cysteines; sites not stated; ATAC11 (maleimide linker with gardiquimod) conjugated by cysteine-based bioconjugation; sites not stated; molar ratio about 4.0
notes: also called SBT-040-G2WT conjugated to ATAC11
  fold change against the unconjugated SBT040-G2: ≤ 2 fold
